Measurements from article PMC6222663, “Biochemical Characterization of the Rice Cinnamyl Alcohol Dehydrogenase Gene Family” (Molecules : A Journal of Synthetic Chemistry and Natural …, 2018).

Columns and labels:
Assay in all cases: NADPH consumption at A340, Lineweaver-Burk
Assay type in all cases: biochemical, Oryza sativa
Details in all cases: 300 μM NADPH, 100 mM sodium/potassium phosphate pH 6.25, 30 °C, substrate 5–50 μM
[1] = substrate: COc1cc(/C=C/C=O)cc(OC)c1O
Text: (§1) NADPH consumption at A340, Lineweaver-Burk on OsCAD2

[2] = substrate: COc1cc(/C=C/C=O)ccc1O
Text: as §1

[3] = substrate: O=C/C=C/c1ccc(O)cc1
Text: as §1

[4] = substrate: O=CC=Cc1ccccc1
Text: as §1

[5] = substrate: COc1cc(/C=C/C=O)cc(OC)c1O; remark: listed apart in the source
Text: (§2) NADPH consumption at A340, Lineweaver-Burk on OsCAD7

[6] = substrate: COc1cc(/C=C/C=O)ccc1O; remark: listed apart in the source
Text: as §2

[7] = substrate: O=C/C=C/c1ccc(O)cc1; remark: listed apart in the source
Text: as §2

[8] = substrate: O=CC=Cc1ccccc1; remark: listed apart in the source
Text: as §2

[9] = substrate: COc1cc(/C=C/C=O)cc(OC)c1O; remark: listed apart in the source
Text: (§3) NADPH consumption at A340, Lineweaver-Burk on OsCAD6

[10] = substrate: COc1cc(/C=C/C=O)ccc1O; remark: listed apart in the source
Text: as §3

[11] = substrate: O=C/C=C/c1ccc(O)cc1; remark: listed apart in the source
Text: as §3

[12] = substrate: O=CC=Cc1ccccc1; remark: listed apart in the source
Text: as §3

B1: OsCAD2 (Oryza sativa Japonica Group) (protein)
chain: MGSLAAEKTVTGWAARDASGHLTPYNYTLRKTGPEDVVVKVLYCGICHTDIHQAKNHLGASKYPMVPGHEVVGEVVEVGPEVTKYSAGDVVGVGVIVGCCRECHPCKANVEQYCNKRIWSYNDVYTDGRPTQGGFASAMVVDQKFVVKIPAGLAPEQAAPLLCAGLTVYSPLKHFGLMSPGLRGGVLGLGGVGHMGVKVAKSMGHHVTVISSSARKRGEAMDDLGADAYLVSSDAAAMAAAGDSLDYIIDTVPVHHPLEPYLALLKLDGKLILMGVINQPLSFISPMVMLGRKAITGSFIGSMAETEEVLNFCVDKGLTSQIEVVKMDYVNQALERLERNDVRYRFVVDVAGSNIDDADAPPA
In the case of B1, the Km [1] is reported as 8.19 ± 2.62 µM, the Vmax [1] is reported as 52.9 µmol/min/mg and the kcat [1] is reported as 41.2 s⁻¹. For the same protein, the kcat/Km [1] was 5.35e+06 M⁻¹ s⁻¹, the Km [2] was 4.37 ± 0.85 µM and the Vmax [2] was 38.7 µmol/min/mg. It also gave a kcat [2] of 30.1 s⁻¹, a kcat/Km [2] of 7.15e+06 M⁻¹ s⁻¹ and a Km [3] of 9.36 ± 2.50 µM. For the same protein, the Vmax [3] was 17.8 µmol/min/mg, the kcat [3] was 13.9 s⁻¹ and the kcat/Km [3] was 1.54e+06 M⁻¹ s⁻¹. For the same protein, the Km [4] was 5.30 ± 3.42 µM, the Vmax [4] was 11.6 µmol/min/mg and the kcat [4] was 9.05 s⁻¹. It also gave a kcat/Km [4] of 2.37e+06 M⁻¹ s⁻¹.

B2: OsCAD7 (Oryza sativa Japonica Group) (protein)
chain: MAPTTTATAAAEQAPPPQHTRKAVGLAAHDDSGHLTPIRISRRKTGDDDVAIKVLYCGICHSDLHTIKNEWRNAVYPVVAGHEITGVVTEVGKNVARFKAGDEVGVGCMVNTCGGCESCRDGCENYCSGGVVFTYNSVDRDGTRTYGGYSDAVVVSQRFVVRFPSSAGGGAGAALPLDSGAPLLCAGVTVYAPMRQHGLCEAGKHVGVVGLGGLGHVAVKFARAFGMRVTVISTSPVKRQEALERLGADGFIVSTNASEMKAAMGTMHGIINTASASTSMHSYLALLKPKGKMILVGLPEKPLQIPTFALVGGGKILAGSCMGSISETQEMIDFAAEHGVAADIELIGADEVNTAMERLAKGDVRYRFVVDIGNTLRSD
B2 showed a Km [5] of 6.42 ± 1.77 µM, a Vmax [5] of 0.17 µmol/min/mg and a kcat [5] of 0.128 s⁻¹. The kcat/Km [5] was 21200 M⁻¹ s⁻¹, the Km [6] was 11.44 ± 2.16 µM and the Vmax [6] was 0.38 µmol/min/mg. It also gave a kcat [6] of 0.285 s⁻¹, a kcat/Km [6] of 25300 M⁻¹ s⁻¹ and a Km [7] of 2.66 ± 0.49 µM. The Vmax [7] was 0.09 µmol/min/mg, the kcat [7] was 0.0692 s⁻¹ and the kcat/Km [7] was 26300 M⁻¹ s⁻¹. It also gave a Km [8] of 14.11 ± 4.00 µM, a Vmax [8] of 0.25 µmol/min/mg and a kcat [8] of 0.188 s⁻¹. It also gave a kcat/Km [8] of 13700 M⁻¹ s⁻¹.

B3: OsCAD6 (Oryza sativa Japonica Group) (protein)
chain: MEVTPNHTQTVSGWAAMDESGKIVPFVFKRRENGVDDVTIKVKYCGMCHTDLHFIHNDWGITMYPVVPGHEITGVVTKVGTNVAGFKVGDRVGVGCIAASCLDCEHCRRSEENYCDKVALTYNGIFWDGSITYGGYSGMLVAHKRFVVRIPDTLPLDAAAPLLCAGITVYSPMKQHGMLQADAAGRRLGVVGLGGLGHVAVKFGKAFGLHVTVISTSPAKEREARENLKADNFVVSTDQKQMQAMTRSLDYIIDTVAATHSLGPILELLKVNGKLVLVGAPEKPVELPSFPLIFGKRTVSGSMTGGMKETQEMMDICGEHNITCDIEIVSTDRINDALARLARNDVRYRFVINVGGDSKL
Protein B3 has a Km [9] of 10.72 ± 0.47 µM, a Vmax [9] of 0.103 µmol/min/mg and a kcat [9] of 0.0733 s⁻¹. It also gave a kcat/Km [9] of 6830 M⁻¹ s⁻¹, a Km [10] of 16.18 ± 4.49 µM and a Vmax [10] of 0.217 µmol/min/mg. It also gave a kcat [10] of 0.154 s⁻¹, a kcat/Km [10] of 9670 M⁻¹ s⁻¹ and a Km [11] of 10.88 ± 4.29 µM. For the same protein, the Vmax [11] was 0.11 µmol/min/mg, the kcat [11] was 0.0757 s⁻¹ and the kcat/Km [11] was 7500 M⁻¹ s⁻¹. For the same protein, the Km [12] was 28.25 ± 11.36 µM, the Vmax [12] was 0.439 µmol/min/mg and the kcat [12] was 0.311 s⁻¹. The kcat/Km [12] was 11500 M⁻¹ s⁻¹.
